This is an account of results in US20170165338A1.

For the first assay, the target named is HLA-A*24 (human). The assay is described as follows: UV-exchange b2m ELISA. (In general: ELISA stands for enzyme-linked immunosorbent assay.)
With LYHDIFSRL, the peptide exchange yield was > 75%. Same read-out and setting: next, TYIKPISKL: 50 to 75%. The same measure, in the same setting: next, QYSSVFKSL: > 75%; IYDDSFIRPVTF: 50 to 75%. YYLEVGKTLI: the peptide exchange yield is > 75%. Same read-out and setting: the figure for KYTSWYVAL is > 75%. For TYTTVPRVAF, the peptide exchange yield is > 75%. Take VFTSTARAF: the peptide exchange yield lay within 50 to 75%.

Consider KYMVYPQTF, for which the peptide exchange yield was > 75%. IYQLDTASI returned a peptide exchange yield of 50 to 75%. The same measure, in the same setting: the figure for YYVYIMNHL is 50 to 75%; for TYLRDQHFL it is > 75%.

On to MYDSYWRQF, for which the peptide exchange yield is > 75%. On the same count and under the same terms, the figure for TYTQDFNKF is 50 to 75%; for YFDKVVTL it is 20 to 49%; for EFGSLHLEFL it is < 20%.

Consider WYVNGVNYF, for which the peptide exchange yield lay within 20 to 49%. Regarding LYLDIINLF, the peptide exchange yield is > 75%. Still for that read-out and setting: the figure for RYSTGLAGNLL is 50 to 75%; for QYLENLEKL it is 50 to 75%; for VFQNFPLLF it is > 75%. Take VYGFQWRHF: the peptide exchange yield is > 75%. In the case of IYTMIYRNL, the peptide exchange yield is > 75%. Still for that read-out and setting: next, EYQENFLSF: 50 to 75%. Same read-out and setting: the figure for LYLKLWNLI is 50 to 75%. VYPWLGALL: the peptide exchange yield is > 75%. As to QYLQDAYSF, the peptide exchange yield was > 75%. Turning to RYFKGLVF, the peptide exchange yield was 50 to 75%. Turning to IFIEVFSHF, the peptide exchange yield was in the range of 50 to 75%. As to IFLDYEAGTLSF, the peptide exchange yield is > 75%. The same measure, in the same setting: next, VYRDETGELF: 50 to 75%; VFKASKITF: 50 to 75%. Regarding IFPQFLYQF, the peptide exchange yield was > 75%. Same read-out and setting: the figure for IYKVGAPTI is 50 to 75%. Same read-out and setting: the figure for EYPLVINTL is 50 to 75%; for GFFIFNERF it is 50 to 75%; for LYLDKATLI it is 50 to 75%. For the molecule AYLHSHALI, the peptide exchange yield is > 75%. With SYALLTYMI, the peptide exchange yield is > 75%.

FYSRLLQKF came in with a peptide exchange yield of 50 to 75%.

RFHPTPLLL: the peptide exchange yield is > 75%.

On to EYINQGDLHEF, for which the peptide exchange yield fell in the range of 50 to 75%. VHIPEVYLI registered a peptide exchange yield of 50 to 75%. Same read-out and setting: next, KYIPYKYVI: 50 to 75%; FFPPTRQMGLLF: > 75%.

For the next assay, the target named is HLA-A*02 (human). The assay is described as follows: UV-exchange b2m ELISA.
For LLNPVVEFV, the peptide exchange yield fell in the range of 50 to 75%.

Molecule FLFGGVLMTL showed a peptide exchange yield of 20 to 49%.

With ALLPELREV, the peptide exchange yield lay in the range of 50 to 75%.

Molecule YLWATIQRI came in with a peptide exchange yield of 50 to 75%. Take ALHFSEDEI: the peptide exchange yield is 20 to 49%. Molecule RLLGTEFQV showed a peptide exchange yield of 50 to 75%. Still for that read-out and setting: the figure for ALLAKILQI is 50 to 75%; for MLAGIAITV it is 50 to 75%. The same measure, in the same setting: next, VLYDRPLKI: 50 to 75%; ILGDLSHLL: 50 to 75%. Molecule MMVGDLLEV yielded a peptide exchange yield of 50 to 75%.

On to KIIDFLSAL, for which the peptide exchange yield was 50 to 75%. FISERVEVV: the peptide exchange yield is > 75%. Regarding FLLPTGAEA, the peptide exchange yield is 20 to 49%.

In turn, FLDKVLVAA registered a peptide exchange yield of 50 to 75%. KLQNIMMLL gave a peptide exchange yield of 20 to 49%. ALLAFFPGL came in with a peptide exchange yield of 50 to 75%. For ILNTHITEL, the peptide exchange yield was 50 to 75%. TLTSLLAQA yielded a peptide exchange yield of 50 to 75%. With SVLDSTAKV, the peptide exchange yield lay within 20 to 49%. Turning to ILVEGISTV, the peptide exchange yield lay within 50 to 75%. The same measure, in the same setting: the figure for YLMDDTVEI is > 75%; for AILAHLNTV it is > 75%.
